Results taken from the DeepSol protein solubility set.

Assay: soluble on expression in E. coli; label from the status in PepcDB or PDB records

Soluble on expression in E. coli, not soluble:
MVLRKLSTYRQKRDFEKTPEPSGEAAVASSKQRRFVIQKHDASRLHYDFRLEFDGVFKSWAVTKGPSLDPHDKRLAVEVEDHPLDYGDFEGTIPEGQYGGGTVMLWDRGTWEADDPERGFKKGDLKFTLHGEKLHGSWVLVRMRNDRDGGKRTNWLLIKHRDEYAREGEDILAEDKSVASGRAMAQIAEGKGLEHHHHHH, LKLTPRQYNDVYEVNYDFINNVRYLMDDVVRGYDYALERYYDFLDVRNDDLRWILSSAQYRRFMRAEHFYRPIYAHENKWHFRIYLVYNNVNFFYYGKPHHYASYCGGHYRTHFNNVSYYKTHYRDHYRHDVYDGHYRIRHDRMTYDMHRRRDFNIAVRPPQKEHHRPATPPQTRPNRPQIHPDRP, MGSDKIHHHHHHMGKPVSSPYYIGCSGWHYAHWVGAFYPPGLPSTGRLAFYAGRFHTVEINSSFYRLPSEKCLRAWHDGTPAGFLFALKASRFITHMKKLKDSEASLARLLGRAENLGEKLGPVLFQLPPHWRRNAKRLEGFLRVLPSGHRYAFEIRDPSWHHPEIYALLNAYNAAFCIFDIAGFQSPIQLTTDFAYIRLHGPSFAAYAGRYTTEALRAWAARIRTWGLRTVYVYFDNDQAAYATHNALELMGILGL, MPVNNENLTSVLDARPFELSEEQKSPLFKANLLAELVHHYQCNEMYRKFCQKNKFDPLVFDGEVADIPPIPVHIFKAIGHKLSSVSDDTIKAKLQSSATSGVPSTILLDKVTARRQTRAMARVMQEVLGPKRRPFCIMDIDPTSPNATNLGARIAAVKGYLNFASTSKYFIDADSPSAPLEFLEQKFVEHLNSLASEEPLIIFGFTFVLYHTVFKTLKDKGISFQLPKGSQVIHIGGWKKLESEKVDKITFNRDIASVLGISPDDVVDIYGFTEQMGLNYPDCKAGWKHIHAYSDVIIRDESNLEVCGPGKVGLLEFVSPLPHSYPGNVVLTDDLGVIEESLCECGKAGKRFKVIGRAKKAEVRGCGDVMSEKLTKKPSYKPLSQQEERLTIYHSPIFLEHHHHHH, MDDLVKSSQKALENQVLRDQVSSYEREIMLQNENMEALRSFRHDMKRHFAEISVLASTGEIEQIKNYVSAMENNLVESRRLVDSGNTALDTVLNYMLQRAVDKKIQLNVKVVVPSDLKLSAYDMNIIFGNLLENAIEAQKDVKNPSIDLEINYLMDSLVVEISNRCLQKVIFKGGLPITTKQSVREHGYGLKNVKKVLDKYISTLDFECSDERFTVKILMKI, MGSDKIHHHHHHMGQVSGCFATSYAEARQKFLAAARGAGATLAEFPHPTRRGSAGEDLAMDVAWVGPADARRVLIISSGVHGVEGFCGSGAQVALLSDSILLADCAEARLGLLVVHAVNPYGFSHLRRVNEDNVDLNRNFMDFAQPLPDNAPYAEIAPMLLPTHWPPSGEEQAQFMKAVAEKGMDWYQTAVSSGQYQDPKGLFYGGNKETWSNYTLRRVLARFGSARGSLRWIDIHTGLGPWGYGEPICMGPDDDGQLKRTRAIWGGEVTSIYDGSSSSARLTGLAWEAVPGTLPDVDYAGIALEFGTLPVAEVLDALRGDHWLYLHPEADENQRTLVRQAMWRAFYGDAYDWRAGVVEQVTEAVRKAMRAR, MTEQLKDFDVAEHLTSEEEIQLYLNEILQEDNIELILSALGDIARARNMSQIARDAGISREGLYKALSGTGNPTFATVMKVMKALNLQFQVQQSRFA, TDKVTDADLETLRKLQEEFATELAISRGRVDALEARSADIQAQQFSPNVVLGGQTIFGLAGGFGGNRPGDGEANTIFTYLTQLQLASSFTGKDRFRVGLISGNAANNSFENLQAFNTNMARLAWQGNYDNQVSINSVEYRVAGLGDRVVFTFKPVGFSLGSVLSPNSIYADAGQGAISAFAGSTPILRIGNLDAGLGFDWLLSDEIRLQFAYGTRGSSDSNQGLFGADHSALGLQFLYKPTPSLITGLAYINAYSSDGHLDTGTGSSNADTSGGINEPSQIHALNASMRWQLTNKLVLGAWGGVMVTDSLKSDAVVLSSTYTVSLGIYDPFGRKGDLFGFLYGLPPKLNNGVLIPTADTGNSTHYEVFYRYLVNDNIAITPGFFLVTDPGHISSNNDIFIGAIRTTFNF, MFQPQDDQDACYDNSIHYTDSLLGQVFELLKDRRASVMYFADHGLERDPTKKNVYFHGGREASQQAYHVPMFIWYSPVLGDGVDRTTENNIFSTAYNNYLINAWMGVTKPEQPQTLEEVIAHYKGDSRVVDANHDVFDYVMLRKEFTEDKQGNPTPEGQG, MGHHHHHHSHMDDKKKKRSPKPCLAQPAQAPGTLRRVPVPTSHSGSLALGLPHLPSPKQRAKFKRVGKEKCRPVLAGGGSGSAGTPLQHSFLTEVTDVYEMEGGLLNLLNDFHSGRLQAFGKECSFEQLEHVREMQEKLARLHFSLDVCGEEEDDEEEEDGVTEGLPEEQKKTMADRNLDQLLSNLEDLSNSMYPFQGTRLCVCVPERSVSSSPALQEYSHTTNFPTSCSPVRFSHRLPKPRYRNLEFPQN, AERLPDFLAKIQPSEIFPGADRYGKPEGKPMVARVYKGDEQLGLVYITTDAVNTRGYSSKPIDTLMVLANDGTIAGAKLVDHHEPIMLIGIPHLPAPGRAIRSNWLPAYIKPNFTLTNRLRLKGLPTVPQPSKATGAGVP, MQDDPSTSPLTHSATLRRLLYEALDALGLDPTRVYRSVYRRIPLPPPTLGGRLVHDNAPLFWTELAAVTGDADIGLHLGEAMKPRLLDVVGYLLLSARDLEEALRSFVRFQHILSGGFAARLEVEGETARLILDINYLGYASLRQQIECLMLLFLKLLALISDDEFVAERIEFRHRAPPRLGEHRRLFGRLPLFSRPHDALVFSAALLRRPSRNANPDMHDVLTRHAEEQSRELSENRLLNRVRYLIELRLGEGYGLRQCAAELGLGSGALQRALAAGGASFRQVRDEVRRQRASEMLLAGRAIREVAKACGFAELSPFYRAFRRWHAAPPEQYRARLAKREEGYSTSGT, MEHLRRFDRVAGAVTQAMREGRIGFSLQQVNAVDDTGEVLYSECLGRLVERDGAVRTSEEFTAFLEASGRVASFDRYMVGLAFEWLDCNPSGVLGCDISAGNIFDENTWSELYDLLSRNREMASRLVLEITECLPLATLPTAAEFIEGARALGYRIALDSFGTGHSTPESLLSVPVDIVKLDAFFIGRGQGVGKGKGFLHHLVGLASCVAPTVIIEGIETYGQLEAVKKAGATHVQGFLLSEPTLYPVYCGQPAPLPAAKPRSAGSRQLHS, MLPSRKRLVLEQLGKTLSRFAGLQAVSPPARGWIRAIREALGMSGVQFAARLGVTPPRVTALERDELSGAVTMKTMRQAAEALDCVFLYALVPRTSLEETIRRQAEAVARERLLRVSHTMMLESQQLSEEEMKQALDAAVEELVRTMPKDLWSKAP, MSVDKSPVYEVKAVPVEKVLANDYNPNVVAPPEMKLLELSIWEDGFTMPCVCYYNKEEDNYILVDGYHRYTVLKTSKRIYKRENGLLPIVVIDKDLSNRMSSTIRHNRARGMHNIELMCNIVAELDRAGMSDQWIMKNIGMDRDELLRLKQISGLADLFANREFSIPDEVAPTETERKTL, MKVIEVTHPIQSKQYITEDVAMAFGFFDGMHKGHDKVFDILNEIAEARSLKKAVMTFDPHPSVVLNPKRKRTTYLTPLSDKIEKISQHDIDYCIVVNFSSRFANVSVEDFVENYIIKNNVKEVIAGFDFTFGKFGKGNMTVLQEYDAFNTTIVSKQEIENEKISTTSIRQDLINGELQKANDALGYIYSIKGTVVQGEKRGRTIGFPTANIQPSDDYLLPRKGVYAVSIEIGTENKLYRGVANIGVKPTFHDPNKAEVVIEVNIFDFEDNIYGERVTVNWHHFLRPEIKFDGIDPLVKQMNDDKSRAKYLLAVDFGDEVAYNI

Soluble on expression in E. coli, soluble:
SVNAATVDLRIMETTDLHSNMMDFDYYKDAATEKFGLVRTASLIEQARAEVKNSVLVDNGDVIQGSPLGDYMAAKGLKEGDVHPVYKAMNTLNYAVGNLGNHEFNYGLDFLHKALAGAKFPYVNANIIDAKTGKPMFTPYLIQDTRVVDSDGQIHTLRIGYIGFVPPQIMTWDKANLNGKVTVNDITETARKYIPEMRAKGADVVVVVAHSGLSADPYQAMAENSVYYLSQVPGVDAIMFGHAHAVFPGKDFANIKGADIAKGTLNGVPAVMPGMWGDHLGVVDLVLNNDSGKWQVTQSKAEARPIYDAVAKKSLAAEDGKLVSVLKADHDATREFVSK, SSAEAGGGIRKRHRTKFTAEQKERMLALAERIGWRIQRQDDEVIQRFCQETGVPRQVLKVWLHNNKH, SLRSFEAPNGVAFASIGDTGAANSNQAKCGISLAALSVALDIKFVNLLGDNLYPHGVTSAVDPLWQSAFEVPFGAPSLQKVAFFPVLGNHDYHLDPYAQIDRCIRLGNEHLNFTEKEKTDGSRPQLSKTYQMQAMLPWMKIHHEKFRYSFDQTTKMHGLDGPRWRLPNFWYFTRHVFRNVPRHVKNPFVTGASISDISLVSTEEDKTDVTVVTIYIDSMVLLLEEGSKSSSIRYRFPRDELYYRHLEFLEDTLKAATREADWIFIAGHHPVVNYSVRNAKPSDFAVRLTELMRKYKVDTFLSGHEHALSFFQEPDANTTHIISGTGSKLSARDPIPSKDCLFSVREHGVAVHVLGKEELHHGFVSADGKVLFTASQRRQDRT, GPLGSNIEQYIHDLDSNSFELDLQFSEDEKRLLLEKQAGGNPWHQFVENNLILKMGPVDKRKGLFARRRQLLLTEGPHLYYVDPVNKVLKGEIPWSQELRPEAKNFKTFFVHTPNRTYYLMDPSGNAHKWCRKIQEVWRQRYQSHPDAAVQ, MSLNNMIQVAIIGAGFIGPAHLEALRRLGDVEVVALCDSRLEAAQRKARALNIAHAYDSVEALLAHPGLQVVHNCTPNHLHAQINRQILAAGLHVFSEKPLCMTAGEARELVALAARAGVVHGVSFVYRQFAMVQQAAAMIRHGEVGRIFAAHGSYLQDWMLLETDYNWRVDSAQGGASRTVADIGSHWCDTVQFMTGRRIVEVMADLSIVWPTRKAPVNGKATFSAVHEAQAYETRPVDTEDFGSVLLRFDDGSKGSFMVSQVSAGRKNRLAVEINGSLCSLAWDQEVPQRLWIGHREQPDRLLSDDPSLLRPEIADSAHYPGGHIEGWPDAFKNMMGHFYQAVRAGKMPAAGARRFAAFDDGADVMYIIEAIVKSHQEQRWVSVEREGHHHHHH, GSLILDGDLLKDKLKLPVIDNLFGKELLDKFQDDIKDKYGVDTKDLKILKTSEDKRFYYVSVDAGDGEKCKFKIRKDVDVPKMVGRKCRKDDDDDDGY, MEKYQALLANNVENTAKEALHQLAYTGREYNNIQDQIETISDLLGHSQSLYDYLREPSKANLTILENMWSSVARNQKLYKQIRFLDTSGTEKVRIKYDFKTSIAGPSLILRDKSAREYFKYAQSLDNEQISAWGIELERDKGELVYPLSPSLRILMPISVNDVRQGYLVLNVDIEYLSSLLNYSPVRDFHIELVKHKGFYIASPDESRLYGDIIPERSQFNFSNMYPDIWPRVVSEQAGYSYSGEHLIAFSSIKFVSNEPLHLIIDLSNEQLSKRATRDINDLIQESLEHHHHHH
